In patent JP2010011840A (dated 2010):

B1: i41SL1-2抗体の軽鎖(i41SL1-2-L) (other, not shown: a dimerising Fc or GST)
light: DIVMTQTQLTLTINIGQPASISCKSSQSLLDSDGKTYLNWLFQRPGQSPKRLIYLVSKLDSGVPDRFTGSGSGTDFTLKISRVEAEDLGVYYCWQGTHFPLTFGAGTKLELRRA
modifications: reduced with 0.2 M β-mercaptoethanol and alkylated with 0.3 M iodoacetamide (positions not stated)
B2: i41SL1-2抗体の重鎖(i41SL1-2-H) (other, not shown: a dimerising Fc or GST)
heavy: QVQLQHSGAELVRPGSSVKVSCKALGYTSTDYEIHWVKQTPVRGLEWIGAIHPGSDVIVYNQKFKGTATLTADKSSSTAYMELRSLTSEDSAVYYCTREGGSVDYVWGQGTLVTVSA
modifications: reduced with 0.2 M β-mercaptoethanol and alkylated with 0.3 M iodoacetamide (positions not stated)

Target: T1, CDR1抗原ペプチド(RSSKSLLYSNGNTYLY)
T1 peptide: RSSKSLLYSNGNTYLY
Test: cell-based or functional assay

Binder	回転数(kcat)	触媒効率(kcat/Km)
B1	~0.005 ratio to trypsin	
B2	~0.005 ratio to trypsin	~0.1 ratio to trypsin
